Patent US11584938B2, “Plant EPSPS mutant containing L195P and S247G mutations and encoding gene and use thereof” (GEVOTO LLC, priority 2017, dated 2023)
Several values for one entry are separate records, joined by “and”; a condition that tells them apart may be missing. Equal entries are not always repeated.

B1: R4: rice EPSPS mutant, SEQ ID NO: 36, mutation S267(247)G (protein)
chain: MASNAAAAAAKAEEIVLQPIREISGAVQLPGSKSLSNRILLLSALSEGTTVVDNLLNSEDVHYMLEALKALGLSVEADKVAKRAVVVGCGGKFPVEKDAKEEVQLFLGNAGTAMRPLTAAVTAAGGNATYVLDGVPRMRERPIGDLVVGLKQLGADVDCFLGTECPPVRVKGIGGLPGGKVKLSGSISSQYLSALLMAAPLALGDVEIEIIDKLISIPYVEMTLRLMERFGVKAEHSDSWDRFYIKGGQKYKSPGNAYVEGDASSAGYFLAGAAITGGTVTVQGCGTTSLQGDVKFAEVLEMMGAKVTWTDTSVTVTGPPREPYGKKHLKAVDVNMNKMPDVAMTLAVVALFADGPTAIRDVASWRVKETERMVAIRTELTKLGASVEEGPDYCIITPPEKLNITAIDTYDDHRMAMAFSLAACADVPVTIRDPGCTRKTFPNYFDVLSTFVRN
B2: R6: rice EPSPS mutant, SEQ ID NO: 40, mutations S267(247)G, L214(195)P and P116(101)S (protein)
chain: MASNAAAAAAKAEEIVLQPIREISGAVQLPGSKSLSNRILLLSALSEGTTVVDNLLNSEDVHYMLEALKALGLSVEADKVAKRAVVVGCGGKFPVEKDAKEEVQLFLGNAGTAMRSLTAAVTAAGGNATYVLDGVPRMRERPIGDLVVGLKQLGADVDCFLGTECPPVRVKGIGGLPGGKVKLSGSISSQYLSALLMAAPLALGDVEIEIIDKPISIPYVEMTLRLMERFGVKAEHSDSWDRFYIKGGQKYKSPGNAYVEGDASSAGYFLAGAAITGGTVTVQGCGTTSLQGDVKFAEVLEMMGAKVTWTDTSVTVTGPPREPYGKKHLKAVDVNMNKMPDVAMTLAVVALFADGPTAIRDVASWRVKETERMVAIRTELTKLGASVEEGPDYCIITPPEKLNITAIDTYDDHRMAMAFSLAACADVPVTIRDPGCTRKTFPNYFDVLSTFVRN
B3: R5: rice EPSPS mutant, SEQ ID NO: 38, mutations S267(247)G and P116(101)S (protein)
chain: MASNAAAAAAKAEEIVLQPIREISGAVQLPGSKSLSNRILLLSALSEGTTVVDNLLNSEDVHYMLEALKALGLSVEADKVAKRAVVVGCGGKFPVEKDAKEEVQLFLGNAGTAMRSLTAAVTAAGGNATYVLDGVPRMRERPIGDLVVGLKQLGADVDCFLGTECPPVRVKGIGGLPGGKVKLSGSISSQYLSALLMAAPLALGDVEIEIIDKLISIPYVEMTLRLMERFGVKAEHSDSWDRFYIKGGQKYKSPGNAYVEGDASSAGYFLAGAAITGGTVTVQGCGTTSLQGDVKFAEVLEMMGAKVTWTDTSVTVTGPPREPYGKKHLKAVDVNMNKMPDVAMTLAVVALFADGPTAIRDVASWRVKETERMVAIRTELTKLGASVEEGPDYCIITPPEKLNITAIDTYDDHRMAMAFSLAACADVPVTIRDPGCTRKTFPNYFDVLSTFVRN

Tested on: transgenic rice plants
Assay: glyphosate resistance of the EPSPS mutant in transgenic rice plants sprayed with Roundup 41% ammonium glyphosate
Format: in vivo, rice (Nipponbare)
Procedure, shortened: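 EPSPS mutant genes were cloned into pGVP1 and introduced into Nipponbare rice embryo-derived calluses via Agrobacterium EHA105 (OD 0.2, 10 min infection, 2–3 days co-culture at 25 °C in the dark). Calluses went through recovery, two 14-day screening rounds at 30 °C, two differentiation rounds and rooting to regenerate transgenic plants.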

[1] = 1× dosage 1060 g/hectare glyphosate sprayed, recorded on 10th day
[2] = 2× dosage 2120 g/hectare sprayed to plants surviving 1×, recorded 10 days later
[3] = 5× dosage 5300 g/hectare sprayed to plants surviving 2×, recorded 10 days later
[4] = 20× dosage 21200 g/hectare sprayed to plants surviving 5×, recorded 10 days later

| Molecule | %++&+++ (percentage of plant having medium and high glyphosate resistance to the total number of plants observed) [1] [%] | number of plants denoted by + (low glyphosate resistance) [1] | number of plants denoted by ++ (medium glyphosate resistance) [1] | number of plants denoted by +++ (high glyphosate resistance) [1] | number of plants denoted by − (no glyphosate resistance) [1] | glyphosate resistance / survival of the rice transformed by the EPSPS, in words (1× glyphosate dosage) | number of plants denoted by + (low glyphosate resistance) [2] | number of plants denoted by ++ (medium glyphosate resistance) [2] | number of plants denoted by +++ (high glyphosate resistance) [2] | number of plants denoted by − (no glyphosate resistance) [2] | glyphosate resistance / survival of the rice transformed by the EPSPS, in words (2× glyphosate dosage) | &++&+++ (percentage of plant having medium and high glyphosate resistance to the total number of plants observed) [3] [%] | number of plants denoted by + (low glyphosate resistance) [3] | number of plants denoted by ++ (medium glyphosate resistance) [3] | number of plants denoted by +++ (high glyphosate resistance) [3] | number of plants denoted by − (no glyphosate resistance) [3] | &++&+++ (percentage of plant having medium and high glyphosate resistance to the total number of plants observed) [4] | number of plants denoted by + (low glyphosate resistance) [4] | number of plants denoted by ++ (medium glyphosate resistance) [4] | number of plants denoted by +++ (high glyphosate resistance) [4] | other results |
| --- | --- | --- | --- | --- | --- | --- | --- | --- | --- | --- | --- | --- | --- | --- | --- | --- | --- | --- | --- | --- | --- |
| B1 | 66.7 | 46 | 62 | 44 | 7 | obviously superior to that of the rice seedlings transformed by R0 | 136 | 10 | 2 | 11 | some of the transgenic rice seedlings transformed by R1 and R4 still survived | 0.0 | 67 | 0 | 0 | 92 | 0.0% | 8 | 0 | 0 | glyphosate resistance / survival of the rice transformed by the EPSPS, in words (5× glyphosate dosage): some of the transgenic rice seedlings transformed by R1 and R4 still survived; number of plants denoted by − (no glyphosate resistance) [4]: 151; glyphosate resistance / survival of the rice transformed by the EPSPS, in words (20× glyphosate dosage): some of the transgenic rice seedlings transformed by R1 and R4 still survived |
| B2 | 70.0 | 7 | 3 | 18 | 2 | had relatively high resistance to glyphosate | 3 | 1 | 18 | 8 | had relatively high resistance to glyphosate | 63.3 | 0 | 6 | 13 | 11 | 63.38% and 63.3% | 0 | 11 | 8 | number of plants denoted by − (no glyphosate resistance) [4]: 11 |
| B3 | 84.2 | 0 | 6 | 10 | 3 | had relatively high resistance to glyphosate | 3 | 6 | 4 | 6 | had relatively high resistance to glyphosate | 42.1 | 3 | 8 | 0 | 8 | 0.0% | 8 | 0 | 0 | %++&+++ (percentage of plant having medium and high glyphosate resistance to the total number of plants observed) [2]: 63.3%; number of plants denoted by − (no glyphosate resistance) [4]: 11 |
